The values below come from article PMC12482648, “G-quadruplex structural motifs modulate protein–RNA interactions within the transcriptome”.

The target in series [1] is T1, FUS C-terminal RNA-binding module (His6-FUS) (UniProt P35637 269-526). Briefly: EMSA; 150 mM KCl; supershift with anti-His; EMSA: 1 uM RNA, 0/0.1/1/5 uM His6-FUS, 50 mM HEPES-KOH (or HEPES-LiOH) pH 7.4, 150 mM KCl (or LiCl), 200 ng BSA, 2 mM EDTA, 2 mM DTT, 5% glycerol, 30 min 30 C. Particulars: protein: recombinant, tags: His6 (pET28a-TEV), label: none (SYBR Gold stain). (In general: Mobility shift assays separate free from complexed probe on a gel.)

For series [2], the target named is T1, FUS C-terminal RNA-binding module …. Kind of series: EMSA; 150 mM KCl; EMSA: 1 uM RNA, 0/0.1/1/5 uM His6-FUS, 50 mM HEPES-KOH (or HEPES-LiOH) pH 7.4, 150 mM KCl (or LiCl), 200 ng BSA, 2 mM EDTA, 2 mM DTT, 5% glycerol, 30 min 30 C. The conditions noted are these: protein: recombinant; tags: His6 (pET28a-TEV); label: none (SYBR Gold stain); none (non-G4).

T1 sequence (P35637 269-526): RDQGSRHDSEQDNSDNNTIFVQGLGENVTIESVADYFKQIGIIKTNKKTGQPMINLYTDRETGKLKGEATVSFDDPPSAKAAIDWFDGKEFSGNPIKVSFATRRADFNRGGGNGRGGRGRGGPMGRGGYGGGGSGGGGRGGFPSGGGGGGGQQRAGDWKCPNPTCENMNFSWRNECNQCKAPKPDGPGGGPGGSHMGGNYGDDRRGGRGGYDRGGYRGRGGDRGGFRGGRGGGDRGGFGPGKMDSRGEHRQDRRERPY

B1: 28RPL23A WT (structured_RNA)
RNA: AGGGGGAGGGUGUGGGGGCAGUGAGGGU
Take B1: the binding result in series [1] (intramolecular G4 (in K+)) was “binds”.

B2: 25COPS9 WT (structured_RNA)
RNA: UGGUGCGCGGGUCCCGGGGAGGGGA
Regarding B2, the binding result in series [1] (G4 (in K+)) is on record as “binds”.

B3: TERRA WT (structured_RNA)
RNA: UUAGGGUUAGGGUUAGGGUUAGGG
Turning to B3, the binding result in series [1] (intramolecular G4 (in K+)) is “binds”.

B4: 28RPL23A mutant (ssRNA)
RNA: AGUGUGAGUGUGUGUGUGCAGUGAGUGU
As for B4, the binding result in series [2] is given as “no binding”.

B5: 25COPS9 mutant (ssRNA)
RNA: UGUUGCGCGUGUCCCGUGGAGUGGA
Consider B5, for which the binding result in series [2] is on record as “no binding”.
